Usually Kd stands for the equilibrium constant for the complex coming apart. Low readings indicate tighter binding, high ones weaker binding.

Among the data in patent US20260139055A1 are Kd values, retold here.

Residue numbers refer to the chain shown, from its start. Names may count otherwise.

First the molecules themselves.
B1: canine IgGB (65) mAb with mutation T286C (antibody, part only; not given: variable domains of unnamed mAb, not shown: another chain or arm of the molecule)
constant: ASTTAPSVFPLAPSCGSTSGSTVALACLVSGYFPEPVTVSWNSGSLTSGVHTFPSVLQSSGLYSLSSMVTVPSSRWPSETFTCNVAHPASKTKVDKPVPKRENGRVPRPPDCPKCPAPEMLGGPSVFIFPPKPKDTLLIARTPEVTCVVVDLDPEDPEVQISWFVDGKQMQCAKTQPREEQFNGTYRVVSVLPIGHQDWLKGKQFTCKVNNKALPSPIERTISKARGQAHQPSVYVLPPSREELSKNTVSLTCLIKDFFPPDIDVEWQSNGQQEPESKYRTTPPQLDEDGSYFLYSKLSVDKSRWQRGDTFICAVMHEALHNHYTQESLSHSPGK
B2: canine IgGB (65) mAb with mutation A426T (antibody, part only; not given: variable domains of unnamed mAb, not shown: another chain or arm of the molecule)
constant: B1 constant with C172T, A314T
B3: canine IgGB (65) mAb with mutation Q311N (antibody, part only; not given: variable domains of unnamed mAb, not shown: another chain or arm of the molecule)
constant: B1 constant with C172T, Q197N
B4: canine IgGB (65) mAb with mutation Q311S (antibody, part only; not given: variable domains of unnamed mAb, not shown: another chain or arm of the molecule)
constant: B1 constant with C172T, Q197S
B5: canine IgGB (65) mAb with mutation D312Y (antibody, part only; not given: variable domains of unnamed mAb, not shown: another chain or arm of the molecule)
constant: B1 constant with C172T, D198Y
B6: canine IgGB (65) mAb with mutation Q311P (antibody, part only; not given: variable domains of unnamed mAb, not shown: another chain or arm of the molecule)
constant: B1 constant with C172T, Q197P
B7: canine IgGB (65) mAb with mutation Q311W (antibody, part only; not given: variable domains of unnamed mAb, not shown: another chain or arm of the molecule)
constant: B1 constant with C172T, Q197W
B8: canine IgGB (65) mAb with mutation T286D (antibody, part only; not given: Variable domains, not shown: another chain or arm of the molecule)
constant: B1 constant with C172D
B9: canine IgGB (65) mAb with mutation D312E (antibody, part only; not given: Variable domains, not shown: another chain or arm of the molecule)
constant: B1 constant with C172T, D198E
B10: canine IgGB (65) mAb with mutation D312W (antibody, part only; not given: Variable domains, not shown: another chain or arm of the molecule)
constant: B1 constant with C172T, D198W
B11: canine IgGB (65) mAb with mutation A426P (antibody, part only; not given: Variable domains, not shown: another chain or arm of the molecule)
constant: B1 constant with C172T, A314P
B12: canine IgGB (65) mAb with mutation T286G (antibody, part only; not given: Variable domains, not shown: another chain or arm of the molecule)
constant: B1 constant with C172G
B13: canine IgGB (65) mAb with mutation A426M (antibody, part only; not given: Variable domains, not shown: another chain or arm of the molecule)
constant: B1 constant with C172T, A314M
B14: canine IgGB (65) mAb with mutation Y436C (antibody, part only; not given: Variable domains, not shown: another chain or arm of the molecule)
constant: B1 constant with C172T, Y324C
B15: canine IgGB (65) mAb with mutation D312T (antibody, part only; not given: Variable domains, not shown: another chain or arm of the molecule)
constant: B1 constant with C172T, D198T
B16: canine IgGB (65) mAb with mutation D312F (antibody, part only; not given: Variable domains, not shown: another chain or arm of the molecule)
constant: B1 constant with C172T, D198F
B17: canine IgGB (65) mAb with mutation Q311I (antibody, part only; not given: variable domains of unnamed mAb, not shown: another chain or arm of the molecule)
constant: B1 constant with C172T, Q197I
B18: canine IgGB (65) mAb with mutation Q311K (antibody, part only; not given: Variable domains, not shown: another chain or arm of the molecule)
constant: B1 constant with C172T, Q197K
B19: canine IgGB (65) mAb with mutation A426D (antibody, part only; not given: Variable domains, not shown: another chain or arm of the molecule)
constant: B1 constant with C172T, A314D
B20: canine IgGB (65) mAb with mutation A426K (antibody, part only; not given: Variable domains, not shown: another chain or arm of the molecule)
constant: B1 constant with C172T, A314K
B21: canine IgGB (65) mAb with mutation A426S (antibody, part only; not given: Variable domains, not shown: another chain or arm of the molecule)
constant: B1 constant with C172T, A314S
B22: canine IgGB (65) mAb with mutation D312N (antibody, part only; not given: Variable domains, not shown: another chain or arm of the molecule)
constant: B1 constant with C172T, D198N
B23: canine IgGB (65) mAb with mutation Q311R (antibody, part only; not given: Variable domains, not shown: another chain or arm of the molecule)
constant: B1 constant with C172T, Q197R
B24: canine IgGB (65) mAb with mutation D312R (antibody, part only; not given: variable domains of unnamed mAb, not shown: another chain or arm of the molecule)
constant: B1 constant with C172T, D198R
B25: canine IgGB (65) mAb with mutation D312A (antibody, part only; not given: variable domains of unnamed mAb, not shown: another chain or arm of the molecule)
constant: B1 constant with C172T, D198A
B26: canine IgGB (65) mAb with mutation Q311H (antibody, part only; not given: variable domains of unnamed mAb, not shown: another chain or arm of the molecule)
constant: B1 constant with C172T, Q197H
B27: canine IgGB (65) mAb with mutation Q311M (antibody, part only; not given: Variable domains, not shown: another chain or arm of the molecule)
constant: B1 constant with C172T, Q197M
B28: canine IgGB (65) mAb with mutation A426I (antibody, part only; not given: Variable domains, not shown: another chain or arm of the molecule)
constant: B1 constant with C172T, A314I
B29: canine IgGB (65) mAb with mutation A426W (antibody, part only; not given: variable domains of unnamed mAb, not shown: another chain or arm of the molecule)
constant: B1 constant with C172T, A314W
B30: canine IgGB (65) mAb with mutation Q311Y (antibody, part only; not given: variable domains of unnamed mAb, not shown: another chain or arm of the molecule)
constant: B1 constant with C172T, Q197Y
B31: canine IgGB (65) mAb with mutation D312G (antibody, part only; not given: Variable domains, not shown: another chain or arm of the molecule)
constant: B1 constant with C172T, D198G
B32: canine IgGB (65) mAb with mutation A426C (antibody, part only; not given: Variable domains, not shown: another chain or arm of the molecule)
constant: B1 constant with C172T, A314C
B33: canine IgGB (65) mAb with mutation D312S (antibody, part only; not given: variable domains of unnamed mAb, not shown: another chain or arm of the molecule)
constant: B1 constant with C172T, D198S
B34: canine IgGB (65) mAb with mutation Y436D (antibody, part only; not given: Variable domains, not shown: another chain or arm of the molecule)
constant: B1 constant with C172T, Y324D
B35: canine IgGB (65) mAb with mutation D312Q (antibody, part only; not given: Variable domains, not shown: another chain or arm of the molecule)
constant: B1 constant with C172T, D198Q
B36: canine IgGB (65) mAb with mutation Q311G (antibody, part only; not given: Variable domains, not shown: another chain or arm of the molecule)
constant: B1 constant with C172T, Q197G
B37: canine IgGB (65) mAb with mutation D312C (antibody, part only; not given: variable domains of unnamed mAb, not shown: another chain or arm of the molecule)
constant: B1 constant with C172T, D198C
B38: canine IgGB (65) mAb with mutation A426G (antibody, part only; not given: variable domains of unnamed mAb, not shown: another chain or arm of the molecule)
constant: B1 constant with C172T, A314G
B39: canine IgGB (65) mAb with mutation T286I (antibody, part only; not given: Variable domains, not shown: another chain or arm of the molecule)
constant: B1 constant with C172I
B40: canine IgGB (65) mAb with mutation A426L (antibody, part only; not given: variable domains of unnamed mAb, not shown: another chain or arm of the molecule)
constant: B1 constant with C172T, A314L
B41: canine IgGB (65) mAb with mutation A426Q (antibody, part only; not given: variable domains of unnamed mAb, not shown: another chain or arm of the molecule)
constant: B1 constant with C172T, A314Q
B42: canine IgGB (65) mAb with mutation A426R (antibody, part only; not given: variable domains of unnamed mAb, not shown: another chain or arm of the molecule)
constant: B1 constant with C172T, A314R
B43: canine IgGB (65) mAb with mutation Q311T (antibody, part only; not given: Variable domains, not shown: another chain or arm of the molecule)
constant: B1 constant with C172T, Q197T
B44: canine IgGB (65) mAb with mutation A426V (antibody, part only; not given: Variable domains, not shown: another chain or arm of the molecule)
constant: B1 constant with C172T, A314V
B45: canine IgGB (65) mAb with mutation D312V (antibody, part only; not given: variable domains of unnamed mAb, not shown: another chain or arm of the molecule)
constant: B1 constant with C172T, D198V
B46: canine IgGB (65) mAb with mutation D312K (antibody, part only; not given: variable domains of unnamed mAb, not shown: another chain or arm of the molecule)
constant: B1 constant with C172T, D198K
B47: canine IgGB (65) mAb with mutation D312H (antibody, part only; not given: Variable domains, not shown: another chain or arm of the molecule)
constant: B1 constant with C172T, D198H
B48: canine IgGB (65) mAb with mutation A426N (antibody, part only; not given: Variable domains, not shown: another chain or arm of the molecule)
constant: B1 constant with C172T, A314N
B49: canine IgGB (65) mAb with mutation D312I (antibody, part only; not given: Variable domains, not shown: another chain or arm of the molecule)
constant: B1 constant with C172T, D198I
B50: canine IgGB (65) mAb with mutation T286H (antibody, part only; not given: variable domains of unnamed mAb, not shown: another chain or arm of the molecule)
constant: B1 constant with C172H
B51: canine IgGB (65) mAb with mutation A426E (antibody, part only; not given: Variable domains, not shown: another chain or arm of the molecule)
constant: B1 constant with C172T, A314E
B52: canine IgGB (65) mAb with mutation Q311L (antibody, part only; not given: Variable domains, not shown: another chain or arm of the molecule)
constant: B1 constant with C172T, Q197L
B53: canine IgGB (65) mAb with mutation T286E (antibody, part only; not given: Variable domains, not shown: another chain or arm of the molecule)
constant: B1 constant with C172E
B54: canine IgGB (65) mAb with mutation D312L (antibody, part only; not given: Variable domains, not shown: another chain or arm of the molecule)
constant: B1 constant with C172T, D198L
B55: canine IgGB (65) mAb with mutation D312M (antibody, part only; not given: Variable domains, not shown: another chain or arm of the molecule)
constant: B1 constant with C172T, D198M
B56: canine IgGB (65) mAb with mutation Y436E (antibody, part only; not given: Variable domains, not shown: another chain or arm of the molecule)
constant: B1 constant with C172T, Y324E

This assay has as its target canine FcRn complex (FcRn-alpha subunit and beta-microglobulin), His-tagged, biotin labeled (canine). The assay can be described thus: SPR (Biacore), biotin-FcRn captured on SA surface, IgG flowed over, pH 6, 15 C. (In general: SPR reads the build-up and loss of mass on a sensor chip optically.)
In the case of B1, the Kd is 8.19 nM. B2 gave a Kd of 8.72 nM.

As to B3, the Kd is 10.1 nM. This Kd and that of the molecule before are within 1.5-fold of each other. Molecule B4 yielded a Kd of 8.7 nM. B5 yielded a Kd of 25.1 nM. B6: the Kd stood at 21.2 nM. The molecule B7 registered a Kd of 2.49 nM. Next, B8: 6.83 nM; B9: 14.1 nM; B10: 14.4 nM.

Turning to B11, the Kd is 23.7 nM.

In turn, B12 displayed a Kd of 6.48 nM. With B13, the Kd turned out to be 8.84 nM. With B14, the Kd stood at 8.84 nM. Molecule B15 registered a Kd of 10.6 nM. B16: the Kd was found to be 21.9 nM. For the molecule B17, the Kd turned out to be 7.94 nM. For B18 the value was 6.23 nM; for B19, 14.9 nM. B20 yielded a Kd of 3.81 nM. Next, B21: 11.9 nM. Next, B22: 17.1 nM; B23: 15.2 nM; B24: 23.1 nM. Turning to B25, the Kd came to 10.3 nM.

Molecule B26 showed an equilibrium dissociation constant (Kd) of 6.66 nM. For B27 the value was 13.1 nM.

The molecule B28 registered a Kd of 8.54 nM. Next, B29: 3.87 nM; B30: 2.61 nM. Next, B31: 26.8 nM; B32: 8.86 nM. For B33, the Kd stood at 14.8 nM. Compared with the last molecule, the Kd is about 1.7-fold higher. As for B34, the Kd was found to be 12.9 nM. B35 registered a Kd of 9.97 nM. With B36, the Kd was found to be 8.42 nM. Molecule B37 yielded a Kd of 19 nM. Compared with the last molecule, the Kd is about 2.3-fold higher.

As to B38, the Kd came out at 7.36 nM. Molecule B39 registered a Kd of 6.38 nM.

Turning to B40, the Kd came out at 5.17 nM. For B41 the value was 8.41 nM; for B42, 4.23 nM; for B43, 10.7 nM.

The molecule B44 showed a Kd of 9.11 nM. B45 came in with a Kd of 14.1 nM.

B46 came in with a Kd of 24 nM. Take B47: the Kd was found to be 9.72 nM. Compared with the last molecule, the Kd is about 2.5-fold lower.

The molecule B48 had a Kd of 5.33 nM.

As for B49, the Kd stood at 21.5 nM.

Regarding B50, the Kd worked out at 5.07 nM. For B51 the value was 4.77 nM; for B52, 19.1 nM. As to B53, the Kd was 8.66 nM. Consider B54, for which the Kd was 12.1 nM. B55 registered a Kd of 16.2 nM. B56 showed a Kd of 5.28 nM.
